Several values for one entry are separate records, joined by “and”; a condition that tells them apart may be missing. Identical values can stand only once.

For the assay, the target named is SECRET domain (smallpox virus-encoded chemokine receptor domain) of the vTNFR CrmD encoded by ectrom (ectromelia virus). The assay can be described thus: SPR.
With “chemokine domain of human CX3CL1 (residues 1-76), mutant F49A (from UniProt P78423 25-100) (domain or fragment)”, the Kd was 3.75 µM and 4.64 µM and 4.2 µM.

Consider “chemokine domain of human CX3CL1 (residues 1-76), mutant I19A (from UniProt P78423 25-100) (domain or fragment)”, for which the Kd was 1.28 µM and 0.641 µM and 0.96 µM; the koff was 0.00689 s⁻¹ and 0.00578 s⁻¹; the kon is 5380 M⁻¹ s⁻¹ and 9020 M⁻¹ s⁻¹.

Regarding “chemokine domain of human CX3CL1 (residues 1-76), mutant K18A (from UniProt P78423 25-100) (domain or fragment)”, the Kd is 10.9 µM and 11.5 µM and 10.3 µM; the koff is 0.0103 s⁻¹ and 0.00518 s⁻¹; the kon was 1000 M⁻¹ s⁻¹ and 450 M⁻¹ s⁻¹.

Turning to “chemokine domain of human CX3CL1 (residues 1-76), mutant L23A (from UniProt P78423 25-100) (domain or fragment)”, the Kd was 3.36 µM and 5.62 µM and 4.49 µM.

For “chemokine domain of human CX3CL1 (residues 1-76), mutant R44A (from UniProt P78423 25-100) (domain or fragment)”, the Kd was 15.7 µM and 16.6 µM and 16.1 µM.

Take “chemokine domain of human CX3CL1 (residues 1-76), mutant R47A (from UniProt P78423 25-100) (domain or fragment)”: the Kd was 34.5 µM and 38.4 µM and 36.5 µM.

As usually defined, the Kd is the concentration at which binding is half-saturated. By koff is commonly meant a measure of how fast the partners let go of each other. One may read the kon as the second-order rate constant of association.

Source of the values: PMC3145792.
